Changes are numbered by the printed parent chain.

The chains are these.
B1: anti-Clec12A antibody A (antibody, V domains shown)
VH: QVQLQESGPGLVKPSETLSLTCTVSGGSISTYYWSWIRQPPGKGLEWIGYIYYSGSTKYNPSLKSRVTISVDTSKNLFSLKLSSVTAADTAVYYCAREDYYGSGSPFDYWGQGTLVTVSS
VL: IQMTQSPSSLSASVGDRVTITCRASQGIRYDLGWYQQKPGKAPKLLIYAASSLQSGVPSRFSGSGSGTDFTLTISSLQPEDFATYYCLQDYNFPRTFGQGTKVEIK
B2: anti-Clec12A antibody B (antibody, V domains shown)
VH: QVQLVESGGGVVQPGRSLRLSCAASGFTFSSYGMHWVRQAPGKGLEWVAVISYDGSDKYYVDSVKGRFTISRDNSKNTLYLHMNSLRAEDTAVYYCARDKGYYFDYWGQGTLVTVSS
VL: EIVMTQSPATLSLSPGERATLSCRASQSVGNRYLSWYQQKPGQAPRLLIYGASTRATGIPARFSGSGSGTDFTLTISSLQPEDFAVYYCQQDYNLPLTFGGGTKVEIK
B3: anti-Clec12A antibody C (antibody, V domains shown)
VH: B2 VH with Y60S, V61A, T69N, H82Q, K100G, G101S, Y102R
VL: B2 VL with V3F, G30H, N31S, R32K, R46S, L97I, G101Q, K104R, V105L

The target of this experiment is Clec12A on cells (Clec12A over-expressing CHO-S cells; U937 cells endogenously expressing Clec12A) (UniProt Q5QGZ9). Nature of the experiment: flow cytometry, serial dilution, on U937 cells endogenously expressing Clec12A. (In general: In flow cytometry, cells or beads pass a laser one at a time.)
Chain of Clec12A on cells (Clec12A over-expressing CHO-S cells; U937 cells endogenously expressing Clec12A) (Q5QGZ9 whole entry): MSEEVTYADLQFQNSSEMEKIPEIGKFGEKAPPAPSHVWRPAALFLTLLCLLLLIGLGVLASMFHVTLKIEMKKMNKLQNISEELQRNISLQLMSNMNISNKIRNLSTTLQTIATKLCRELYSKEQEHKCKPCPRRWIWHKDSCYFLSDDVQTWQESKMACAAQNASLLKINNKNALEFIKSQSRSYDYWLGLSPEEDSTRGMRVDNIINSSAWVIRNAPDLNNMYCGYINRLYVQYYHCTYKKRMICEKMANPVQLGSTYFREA
A word on the EC50: it is the concentration giving half of the maximal effect. A high value points to a less potent agent. B1 registered an EC50 of 0.621 nM.

Regarding B2, the 50% effective concentration (EC50) was determined as 3.36 nM.

B3 displayed an EC50 of 3.35 nM.
